Sequences and labels used below:
T1: human calcitonin receptor (human, UniProt P30988 25-474)
T1 construct: whole, on cells; also called hCTR; hCT
T1 sequence (looked up): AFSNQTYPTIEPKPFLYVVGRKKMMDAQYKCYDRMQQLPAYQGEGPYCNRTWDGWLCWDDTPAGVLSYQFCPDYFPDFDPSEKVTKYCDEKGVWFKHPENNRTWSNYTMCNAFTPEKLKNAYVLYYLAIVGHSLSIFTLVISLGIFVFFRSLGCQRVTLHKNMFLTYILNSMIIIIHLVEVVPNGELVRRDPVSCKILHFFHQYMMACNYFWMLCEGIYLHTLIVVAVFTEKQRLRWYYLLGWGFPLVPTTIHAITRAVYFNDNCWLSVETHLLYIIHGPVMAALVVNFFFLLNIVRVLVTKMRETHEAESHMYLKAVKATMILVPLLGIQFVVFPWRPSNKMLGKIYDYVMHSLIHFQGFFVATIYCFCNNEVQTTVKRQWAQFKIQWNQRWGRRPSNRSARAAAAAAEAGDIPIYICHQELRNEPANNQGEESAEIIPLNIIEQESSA

B1: N^ε1-[(4S)-4-carboxy-4-(19-carboxynonadecanoylamino)butanoyl]-[His14,Arg17,Pro21,Pro27]-h-amylin (peptide)
peptide: K([γGlu-C20 diacid])CNTATCATQRLAHFLRHSSPNFGAIPSSTNVGSNTY-NH2
modifications: disulfide 2-7; N-terminus assumed
SMILES: CC[C@H](C)[C@H](NC(=O)[C@H](C)NC(=O)CNC(=O)[C@H](Cc1ccccc1)NC(=O)[C@H](CC(N)=O)NC(=O)[C@@H]1CCCN1C(=O)[C@H](CO)NC(=O)[C@H](CO)NC(=O)[C@H](Cc1c[nH]cn1)NC(=O)[C@H](CCCNC(=N)N)NC(=O)[C@H](CC(C)C)NC(=O)[C@H](Cc1ccccc1)NC(=O)[C@H](Cc1c[nH]cn1)NC(=O)[C@H](C)NC(=O)[C@H](CC(C)C)NC(=O)[C@H](CCCNC(=N)N)NC(=O)[C@H](CCC(N)=O)NC(=O)[C@@H](NC(=O)[C@H](C)NC(=O)[C@@H]1CSSC[C@H](NC(=O)[C@@H](N)CCCCNC(=O)CC[C@H](NC(=O)CCCCCCCCCCCCCCCCCCC(=O)O)C(=O)O)C(=O)N[C@@H](CC(N)=O)C(=O)N[C@@H]([C@@H](C)O)C(=O)N[C@@H](C)C(=O)N[C@@H]([C@@H](C)O)C(=O)N1)[C@@H](C)O)C(=O)N1CCC[C@H]1C(=O)N[C@@H](CO)C(=O)N[C@@H](CO)C(=O)N[C@H](C(=O)N[C@@H](CC(N)=O)C(=O)N[C@H](C(=O)NCC(=O)N[C@@H](CO)C(=O)N[C@@H](CC(N)=O)C(=O)N[C@H](C(=O)N[C@@H](Cc1ccc(O)cc1)C(N)=O)[C@@H](C)O)C(C)C)[C@@H](C)O
notes: also called compound 70
B2: N^ε1-[(4S)-4-carboxy-4-[[(4S)-4-carboxy-4-(19-carboxynonadecanoylamino)butanoyl]amino]butanoyl]-[Glu14,Arg17,Pro21,Pro27,His34,Glu35]-h-amylin (peptide)
peptide: K([γGlu-γGlu-C20 diacid])CNTATCATQRLAEFLRHSSPNFGAIPSSTNVGHETY-NH2
modifications: disulfide 2-7; N-terminus assumed
SMILES: CC[C@H](C)[C@H](NC(=O)[C@H](C)NC(=O)CNC(=O)[C@H](Cc1ccccc1)NC(=O)[C@H](CC(N)=O)NC(=O)[C@@H]1CCCN1C(=O)[C@H](CO)NC(=O)[C@H](CO)NC(=O)[C@H](Cc1c[nH]cn1)NC(=O)[C@H](CCCNC(=N)N)NC(=O)[C@H](CC(C)C)NC(=O)[C@H](Cc1ccccc1)NC(=O)[C@H](CCC(=O)O)NC(=O)[C@H](C)NC(=O)[C@H](CC(C)C)NC(=O)[C@H](CCCNC(=N)N)NC(=O)[C@H](CCC(N)=O)NC(=O)[C@@H](NC(=O)[C@H](C)NC(=O)[C@@H]1CSSC[C@H](NC(=O)[C@@H](N)CCCCNC(=O)CC[C@H](NC(=O)CC[C@H](NC(=O)CCCCCCCCCCCCCCCCCCC(=O)O)C(=O)O)C(=O)O)C(=O)N[C@@H](CC(N)=O)C(=O)N[C@@H]([C@@H](C)O)C(=O)N[C@@H](C)C(=O)N[C@@H]([C@@H](C)O)C(=O)N1)[C@@H](C)O)C(=O)N1CCC[C@H]1C(=O)N[C@@H](CO)C(=O)N[C@@H](CO)C(=O)N[C@H](C(=O)N[C@@H](CC(N)=O)C(=O)N[C@H](C(=O)NCC(=O)N[C@@H](Cc1c[nH]cn1)C(=O)N[C@@H](CCC(=O)O)C(=O)N[C@H](C(=O)N[C@@H](Cc1ccc(O)cc1)C(N)=O)[C@@H](C)O)C(C)C)[C@@H](C)O
B3: N^ε1-[(4S)-4-carboxy-4-[[(4S)-4-carboxy-4-(19-carboxynonadecanoylamino)butanoyl]amino]butanoyl]-[Glu14,Arg17,Pro21,Pro27,Arg35]-h-amylin (peptide)
peptide: K([γGlu-γGlu-C20 diacid])CNTATCATQRLAEFLRHSSPNFGAIPSSTNVGSRTY-NH2
modifications: disulfide 2-7; N-terminus assumed
SMILES: CC[C@H](C)[C@H](NC(=O)[C@H](C)NC(=O)CNC(=O)[C@H](Cc1ccccc1)NC(=O)[C@H](CC(N)=O)NC(=O)[C@@H]1CCCN1C(=O)[C@H](CO)NC(=O)[C@H](CO)NC(=O)[C@H](Cc1c[nH]cn1)NC(=O)[C@H](CCCNC(=N)N)NC(=O)[C@H](CC(C)C)NC(=O)[C@H](Cc1ccccc1)NC(=O)[C@H](CCC(=O)O)NC(=O)[C@H](C)NC(=O)[C@H](CC(C)C)NC(=O)[C@H](CCCNC(=N)N)NC(=O)[C@H](CCC(N)=O)NC(=O)[C@@H](NC(=O)[C@H](C)NC(=O)[C@@H]1CSSC[C@H](NC(=O)[C@@H](N)CCCCNC(=O)CC[C@H](NC(=O)CC[C@H](NC(=O)CCCCCCCCCCCCCCCCCCC(=O)O)C(=O)O)C(=O)O)C(=O)N[C@@H](CC(N)=O)C(=O)N[C@@H]([C@@H](C)O)C(=O)N[C@@H](C)C(=O)N[C@@H]([C@@H](C)O)C(=O)N1)[C@@H](C)O)C(=O)N1CCC[C@H]1C(=O)N[C@@H](CO)C(=O)N[C@@H](CO)C(=O)N[C@H](C(=O)N[C@@H](CC(N)=O)C(=O)N[C@H](C(=O)NCC(=O)N[C@@H](CO)C(=O)N[C@@H](CCCNC(=N)N)C(=O)N[C@H](C(=O)N[C@@H](Cc1ccc(O)cc1)C(N)=O)[C@@H](C)O)C(C)C)[C@@H](C)O
notes: also called compound 89
B4: N^ε1-[(4S)-4-carboxy-4-[[(4S)-4-carboxy-4-(19-carboxynonadecanoylamino)butanoyl]amino]butanoyl]-[Arg17,Pro21,Pro27,Pro31,Pro34,Arg35]-h-amylin (peptide)
peptide: K([γGlu-γGlu-C20 diacid])CNTATCATQRLANFLRHSSPNFGAIPSSTPVGPRTY-NH2
modifications: disulfide 2-7; N-terminus assumed
SMILES: CC[C@H](C)[C@H](NC(=O)[C@H](C)NC(=O)CNC(=O)[C@H](Cc1ccccc1)NC(=O)[C@H](CC(N)=O)NC(=O)[C@@H]1CCCN1C(=O)[C@H](CO)NC(=O)[C@H](CO)NC(=O)[C@H](Cc1c[nH]cn1)NC(=O)[C@H](CCCNC(=N)N)NC(=O)[C@H](CC(C)C)NC(=O)[C@H](Cc1ccccc1)NC(=O)[C@H](CC(N)=O)NC(=O)[C@H](C)NC(=O)[C@H](CC(C)C)NC(=O)[C@H](CCCNC(=N)N)NC(=O)[C@H](CCC(N)=O)NC(=O)[C@@H](NC(=O)[C@H](C)NC(=O)[C@@H]1CSSC[C@H](NC(=O)[C@@H](N)CCCCNC(=O)CC[C@H](NC(=O)CC[C@H](NC(=O)CCCCCCCCCCCCCCCCCCC(=O)O)C(=O)O)C(=O)O)C(=O)N[C@@H](CC(N)=O)C(=O)N[C@@H]([C@@H](C)O)C(=O)N[C@@H](C)C(=O)N[C@@H]([C@@H](C)O)C(=O)N1)[C@@H](C)O)C(=O)N1CCC[C@H]1C(=O)N[C@@H](CO)C(=O)N[C@@H](CO)C(=O)N[C@H](C(=O)N1CCC[C@H]1C(=O)N[C@H](C(=O)NCC(=O)N1CCC[C@H]1C(=O)N[C@@H](CCCNC(=N)N)C(=O)N[C@H](C(=O)N[C@@H](Cc1ccc(O)cc1)C(N)=O)[C@@H](C)O)C(C)C)[C@@H](C)O
B5: N^ε1-[(4S)-4-carboxy-4-[[(4S)-4-carboxy-4-(19-carboxynonadecanoylamino)butanoyl]amino]butanoyl]-[Glu14,Arg17,Pro21,Pro27,Arg34]-h-amylin (peptide)
peptide: K([γGlu-γGlu-C20 diacid])CNTATCATQRLAEFLRHSSPNFGAIPSSTNVGRNTY-NH2
modifications: disulfide 2-7; N-terminus assumed
SMILES: CC[C@H](C)[C@H](NC(=O)[C@H](C)NC(=O)CNC(=O)[C@H](Cc1ccccc1)NC(=O)[C@H](CC(N)=O)NC(=O)[C@@H]1CCCN1C(=O)[C@H](CO)NC(=O)[C@H](CO)NC(=O)[C@H](Cc1c[nH]cn1)NC(=O)[C@H](CCCNC(=N)N)NC(=O)[C@H](CC(C)C)NC(=O)[C@H](Cc1ccccc1)NC(=O)[C@H](CCC(=O)O)NC(=O)[C@H](C)NC(=O)[C@H](CC(C)C)NC(=O)[C@H](CCCNC(=N)N)NC(=O)[C@H](CCC(N)=O)NC(=O)[C@@H](NC(=O)[C@H](C)NC(=O)[C@@H]1CSSC[C@H](NC(=O)[C@@H](N)CCCCNC(=O)CC[C@H](NC(=O)CC[C@H](NC(=O)CCCCCCCCCCCCCCCCCCC(=O)O)C(=O)O)C(=O)O)C(=O)N[C@@H](CC(N)=O)C(=O)N[C@@H]([C@@H](C)O)C(=O)N[C@@H](C)C(=O)N[C@@H]([C@@H](C)O)C(=O)N1)[C@@H](C)O)C(=O)N1CCC[C@H]1C(=O)N[C@@H](CO)C(=O)N[C@@H](CO)C(=O)N[C@H](C(=O)N[C@@H](CC(N)=O)C(=O)N[C@H](C(=O)NCC(=O)N[C@@H](CCCNC(=N)N)C(=O)N[C@@H](CC(N)=O)C(=O)N[C@H](C(=O)N[C@@H](Cc1ccc(O)cc1)C(N)=O)[C@@H](C)O)C(C)C)[C@@H](C)O
notes: also called compound 88
B6: N^ε1-[(4S)-4-carboxy-4-[[(4S)-4-carboxy-4-(19-carboxynonadecanoylamino)butanoyl]amino]butanoyl]-[Asp14,Arg17,Pro21,Pro27,Pro34,Glu35]-h-amylin (peptide)
peptide: K([γGlu-γGlu-C20 diacid])CNTATCATQRLADFLRHSSPNFGAIPSSTNVGPETY-NH2
modifications: disulfide 2-7; N-terminus assumed
SMILES: CC[C@H](C)[C@H](NC(=O)[C@H](C)NC(=O)CNC(=O)[C@H](Cc1ccccc1)NC(=O)[C@H](CC(N)=O)NC(=O)[C@@H]1CCCN1C(=O)[C@H](CO)NC(=O)[C@H](CO)NC(=O)[C@H](Cc1c[nH]cn1)NC(=O)[C@H](CCCNC(=N)N)NC(=O)[C@H](CC(C)C)NC(=O)[C@H](Cc1ccccc1)NC(=O)[C@H](CC(=O)O)NC(=O)[C@H](C)NC(=O)[C@H](CC(C)C)NC(=O)[C@H](CCCNC(=N)N)NC(=O)[C@H](CCC(N)=O)NC(=O)[C@@H](NC(=O)[C@H](C)NC(=O)[C@@H]1CSSC[C@H](NC(=O)[C@@H](N)CCCCNC(=O)CC[C@H](NC(=O)CC[C@H](NC(=O)CCCCCCCCCCCCCCCCCCC(=O)O)C(=O)O)C(=O)O)C(=O)N[C@@H](CC(N)=O)C(=O)N[C@@H]([C@@H](C)O)C(=O)N[C@@H](C)C(=O)N[C@@H]([C@@H](C)O)C(=O)N1)[C@@H](C)O)C(=O)N1CCC[C@H]1C(=O)N[C@@H](CO)C(=O)N[C@@H](CO)C(=O)N[C@H](C(=O)N[C@@H](CC(N)=O)C(=O)N[C@H](C(=O)NCC(=O)N1CCC[C@H]1C(=O)N[C@@H](CCC(=O)O)C(=O)N[C@H](C(=O)N[C@@H](Cc1ccc(O)cc1)C(N)=O)[C@@H](C)O)C(C)C)[C@@H](C)O

The record followed here is patent US20140087995A1 (published 2014).

For orientation: IC50 means the concentration at which inhibition is half-maximal.

Numbered stars: 1 amine (or outer) side, 2 acyl side, 3 side chain; on linkers, the order of the positions; unused ones are H or OH. Bridge positions count the residues as written; N and C are the ends. Side chains are listed from the residue outwards. Ends that are not written are not given here. * marks the point of attachment. C20 diacid = O=C(O)CCCCCCCCCCCCCCCCCCC(=O)*; γGlu = O=C(O)[C@H](CCC(=O)[*:2])N[*:1]

For the first test, the target named is T1, human calcitonin receptor. The test is described as follows: SPA radioligand competition (125I-calcitonin), membranes of BHK cells with human calcitonin receptor. In outline: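 BHK hCTR membranes 35 ng/μL + SPA beads 0.05 mg/well; buffer 50 mM Hepes pH 7.4, 1 mM CaCl2, 5 mM MgCl₂, 0.1% OA, 0.02% Tween20. 120 min, 25° C., shaking. Scintillation count; IC50 by one-site binding competition.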
In the case of B1, the IC50 was 10.3 nM.
Consider B2, for which the IC50 worked out at 15.2 nM.
Still for that read-out and setting: next, B3: 32.5 nM.
B4: the IC50 came to 42.8 nM.
Same read-out and setting: the figure for B5 is 34.9 nM.
Still for that read-out and setting: next, B6: 8.56 nM.

The next test concerns the target T1, human calcitonin receptor. The experiment in a line: ratio of IC50 at human calcitonin receptor to IC50 at human amylin receptor (SPA competition assays). In outline:
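Competition binding by SPA with cell membranes (35 ng/μL) and SPA beads in 50 mM Hepes pH 7.4 with 1 mM CaCl2, 5 mM MgCl2, 0.1% OA and 0.02% Tween20. Incubated 120 min at 25 °C with shaking, then counted.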
B1: the “Ratio hCT/hAmylin binding” value worked out at 60.8.
Still for that read-out and setting: next, B2: 29.1; B3: 28; B4: 48.6.
As for B5, the “Ratio hCT/hAmylin binding” value stood at 46.5.
As to B6, the “Ratio hCT/hAmylin binding” value was 49.8.
